Holding throughout (test): Octet BLI; Fab 200 nM
(In BLI a coated tip is dipped into the sample, and binding shifts an interference pattern.)

Experiment [1] has as its target T1, extracellular domain of human BCMA (human, UniProt Q02223 1-54).
T1 construct: amine-linked to Octet AR2G tips; also called hsBCMA; BCMA (human)
T1 sequence: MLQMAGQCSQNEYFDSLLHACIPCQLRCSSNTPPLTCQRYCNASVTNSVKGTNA

Experiment [2] deals with T2, extracellular domain of rhesus monkey BCMA (rhesus monkey, UniProt F7FFA0 1-53).
T2 construct: extracellular domain; also called RhBCMA
T2 sequence (F7FFA0 entry or part of it): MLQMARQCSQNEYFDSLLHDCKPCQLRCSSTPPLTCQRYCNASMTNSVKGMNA

In experiment [3] the target is T1, extracellular domain of human BCMA. This is another data set of the same source.
The target of experiment [4] is T2, extracellular domain of rhesus monkey …. The source holds these as a separate data set.
The target of experiment [5] is T1, extracellular domain of human BCMA. The source holds these as a separate data set.
In experiment [6] the target is T2, extracellular domain of rhesus monkey …. The source holds these as a separate data set.

Like-named read-outs stand apart in the source and are kept apart here.

B1: AB200_Fab (D99D) (Fab, V domains shown)
VH: QVQLVQSGAEVKKPGSSVKVSCKASGGTFSNYWMHWVRQAPGQGLEWMGATYRGHSDTYYNQKFKGRVTITADKSTSTAYMELSSLRSEDTAVYYCARGAIYDGYDVLDNWGQGTLVTVSS
VL: DIQMTQSPSSLSASVGDRVTITCSASQDISNYLNWYQQKPGKAPKLLIYYTSNLHSGVPSRFSGSGSGTDFTLTISSLQPEDFATYYCQQYRKLPWTFGQGTKLEIKR
Broadly, the Kd is the concentration at which binding is half-saturated. As usually defined, the koff is a measure of how fast the partners let go of each other. In general, kon refers to a measure of how fast the partners come together. On to B1, for which, in experiment [1], the Kd worked out at 3.45 nM, the dissociation rate constant (koff) worked out at 0.00058 s⁻¹ and the kon is 170000 M⁻¹ s⁻¹. In experiment [2], binding was characterised by a dissociation constant (Kd) of 5.89 nM, the koff is 0.00118 s⁻¹ and the kon came out at 200000 M⁻¹ s⁻¹.

B2: AB200-(2Vk31)_R2-CDR2-hs-v3 (Fab, V domains shown)
VH: QVQLVQSGAEVKKPGSSVKVSCKASGGTFTNYWIHWVRQAPGQGLEWMGGIIPIFGTANYAQKFQGRVTITADKSTSTAYMELSSLRSEDTAVYYCARGAVYHGYDVIDNWGQGTLVTVSS
VL: DIQMTQSPSSLSASVGDRVTITCRASQSISSYLNWYQQKPGKAPKLLIYATSNLQIGVPSRFSGSGSGTDFTLTISSLQPEDFATYYCQQFRRLPWTFGQGTKLEIKR
Regarding B2, the figures for the Kd in experiment [3] and in experiment [4] were 126 nM and 216 nM, respectively.

B3: AB200-(2Vk31)_R2-CDR2-hs-v1 (Fab, V domains shown)
VH: QVQLVQSGAEVKKPGSSVKVSCKASGGTFTNYWIHWVRQAPGQGLEWMGGIIPIFGTANYAQKFQGRVTITADKSTSTAYMELSSLRSEDTAVYYCARGAIFHGYDVIDNWGQGTLVTVSS
VL: DIQMTQSPSSLSASVGDRVTITCRASQSISSYLNWYQQKPGKAPKLLIYATSNLQIGVPSRFSGSGSGTDFTLTISSLQPEDFATYYCQQFRRLPWTFGQGTKLEIKR
For B3, the dissociation constant (Kd) in experiment [3] is 241 nM; in experiment [4], 448 nM.

B4: AB200_Fab + D99H (Fab, V domains shown)
VH: QVQLVQSGAEVKKPGSSVKVSCKASGGTFSNYWMHWVRQAPGQGLEWMGATYRGHSDTYYNQKFKGRVTITADKSTSTAYMELSSLRSEDTAVYYCARGAIYHGYDVLDNWGQGTLVTVSS
VL: DIQMTQSPSSLSASVGDRVTITCSASQDISNYLNWYQQKPGKAPKLLIYYTSNLHSGVPSRFSGSGSGTDFTLTISSLQPEDFATYYCQQYRKLPWTFGQGTKLEIKR
notes: also called AB200_D99H; D99H variant
For the molecule B4, in experiment [1], the Kd turned out to be 2.08 nM, the dissociation rate constant (koff) was 0.00037 s⁻¹ and the kon amounted to 180000 M⁻¹ s⁻¹. Also, in experiment [2], the Kd came to 5.7 nM, the dissociation rate constant (koff) came to 0.00105 s⁻¹ and the kon was determined as 180000 M⁻¹ s⁻¹.

B5: AB200_Fab + D99N (Fab, name in Kabat numbering, V domains shown)
VH: QVQLVQSGAEVKKPGSSVKVSCKASGGTFSNYWMHWVRQAPGQGLEWMGATYRGHSDTYYNQKFKGRVTITADKSTSTAYMELSSLRSEDTAVYYCARGAIYNGYDVLDNWGQGTLVTVSS
VL: DIQMTQSPSSLSASVGDRVTITCSASQDISNYLNWYQQKPGKAPKLLIYYTSNLHSGVPSRFSGSGSGTDFTLTISSLQPEDFATYYCQQYRKLPWTFGQGTKLEIKR
notes: also called D99N variant
In the case of B5, in experiment [1], the Kd was 1.23 nM, the off-rate (koff) was 0.00023 s⁻¹ and the on-rate constant (kon) stood at 190000 M⁻¹ s⁻¹. For the same molecule, in experiment [2], the equilibrium dissociation constant (Kd) turned out to be 3.32 nM, the koff was found to be 0.00066 s⁻¹ and the on-rate (kon) was determined as 200000 M⁻¹ s⁻¹.

B6: AB200_Fab + D99Q (Fab, name in Kabat numbering, V domains shown)
VH: QVQLVQSGAEVKKPGSSVKVSCKASGGTFSNYWMHWVRQAPGQGLEWMGATYRGHSDTYYNQKFKGRVTITADKSTSTAYMELSSLRSEDTAVYYCARGAIYQGYDVLDNWGQGTLVTVSS
VL: DIQMTQSPSSLSASVGDRVTITCSASQDISNYLNWYQQKPGKAPKLLIYYTSNLHSGVPSRFSGSGSGTDFTLTISSLQPEDFATYYCQQYRKLPWTFGQGTKLEIKR
In experiment [1], B6 displayed an equilibrium dissociation constant (Kd) of 3.06 nM, a dissociation rate constant (koff) of 0.00053 s⁻¹ and a kon of 170000 M⁻¹ s⁻¹. In experiment [2], this molecule registered a dissociation constant Kd of 7.63 nM, an off-rate (koff) of 0.0014 s⁻¹ and an on-rate constant (kon) of 180000 M⁻¹ s⁻¹.

B7: AB200_Fab + D99T (Fab, name in Kabat numbering, V domains shown)
VH: QVQLVQSGAEVKKPGSSVKVSCKASGGTFSNYWMHWVRQAPGQGLEWMGATYRGHSDTYYNQKFKGRVTITADKSTSTAYMELSSLRSEDTAVYYCARGAIYTGYDVLDNWGQGTLVTVSS
VL: DIQMTQSPSSLSASVGDRVTITCSASQDISNYLNWYQQKPGKAPKLLIYYTSNLHSGVPSRFSGSGSGTDFTLTISSLQPEDFATYYCQQYRKLPWTFGQGTKLEIKR
In experiment [1], B7 came in with a dissociation constant (Kd) of 3.72 nM, a dissociation rate constant (koff) of 0.0003 s⁻¹ and an on-rate constant (kon) of 80000 M⁻¹ s⁻¹. In experiment [2], this molecule came in with a Kd of 11.5 nM, a koff of 0.00099 s⁻¹ and a kon of 90000 M⁻¹ s⁻¹.

B8: AB200-(2Vk31)_R2-VH-v66 (Fab, V domains shown)
VH: QVQLVQSGAEVKKPGSSVKVSCKASGGTFSNYWIHWVRQAPGQGLEWMGATYRIHSTTYYNQKYKSRVTITADKSTSTAYMELSSLRSEDTAVYYCARGAIFHGYDVIDNWGQGTLVTVSS
VL: DIQMTQSPSSLSASVGDRVTITCRASQSISSYLNWYQQKPGKAPKLLIYATSNLQIGVPSRFSGSGSGTDFTLTISSLQPEDFATYYCQQFRRLPWTFGQGTKLEIKR
As for B8, the Kd is 13.7 nM in experiment [3] and 20.8 nM in experiment [4].

B9: AB200-(2Vk30)_R2-VH-v4 (Fab, V domains shown)
VH: QVQLVQSGAEVKKPGSSVKVSCKASGGTFTNYWIHWVRQAPGQGLEWMGATYRSHSDTNYAQKFKSRVTITADKSTSTAYMELSSLRSEDTAVYYCARGAIYHGYDVIENWGQGTLVTVSS
VL: DIQMTQSPSSLSASVGDRVTITCRASQSISSYLNWYQQKPGKAPKLLIYATSNLQIGVPSRFSGSGSGTDFTLTISSLQPEDFATYYCQQYRRIPWTFGQGTKLEIKR
With B9, the Kd in experiment [5] was determined as 46.4 nM; in experiment [6] it was 125 nM.

B10: AB200-(2Vk31)_R2-VH-v73 (Fab, V domains shown)
VH: QVQLVQSGAEVKKPGSSVKVSCKASGGTFSNYWIHWVRQAPGQGLEWMGATYRIHSDTYYAQKYKSRVTITADKSTSTAYMELSSLRSEDTAVYYCARGAVYHGYDVIDNWGQGTLVTVSS
VL: DIQMTQSPSSLSASVGDRVTITCRASQSISSYLNWYQQKPGKAPKLLIYATSNLQIGVPSRFSGSGSGTDFTLTISSLQPEDFATYYCQQFRRLPWTFGQGTKLEIKR
On to B10, for which the dissociation constant Kd turned out to be 1.32 nM in experiment [3] and 7.72 nM in experiment [4].

B11: AB200_Fab + D99E (Fab, name in Kabat numbering, V domains shown)
VH: QVQLVQSGAEVKKPGSSVKVSCKASGGTFSNYWMHWVRQAPGQGLEWMGATYRGHSDTYYNQKFKGRVTITADKSTSTAYMELSSLRSEDTAVYYCARGAIYEGYDVLDNWGQGTLVTVSS
VL: DIQMTQSPSSLSASVGDRVTITCSASQDISNYLNWYQQKPGKAPKLLIYYTSNLHSGVPSRFSGSGSGTDFTLTISSLQPEDFATYYCQQYRKLPWTFGQGTKLEIKR
On to B11, for which, in experiment [1], the dissociation constant (Kd) came to 5.92 nM, the koff came out at 0.00091 s⁻¹ and the on-rate (kon) was 150000 M⁻¹ s⁻¹. Further, in experiment [2], binding was characterised by a dissociation constant (Kd) of 13.6 nM, the koff is 0.00219 s⁻¹ and the kon worked out at 160000 M⁻¹ s⁻¹.

B12: AB200_Fab + D99S (Fab, name in Kabat numbering, V domains shown)
VH: QVQLVQSGAEVKKPGSSVKVSCKASGGTFSNYWMHWVRQAPGQGLEWMGATYRGHSDTYYNQKFKGRVTITADKSTSTAYMELSSLRSEDTAVYYCARGAIYSGYDVLDNWGQGTLVTVSS
VL: DIQMTQSPSSLSASVGDRVTITCSASQDISNYLNWYQQKPGKAPKLLIYYTSNLHSGVPSRFSGSGSGTDFTLTISSLQPEDFATYYCQQYRKLPWTFGQGTKLEIKR
In the case of B12, in experiment [1], binding was characterised by a dissociation constant (Kd) of 3.86 nM, the koff worked out at 0.00044 s⁻¹ and the kon amounted to 110000 M⁻¹ s⁻¹. Also, in experiment [2], the Kd stood at 9.75 nM, the koff came out at 0.00114 s⁻¹ and the kon turned out to be 120000 M⁻¹ s⁻¹.

The values are drawn from patent US20240327535A1 (EISAI R AND D MANAGEMENT, published 2024).
